Reference: the Human Domainome abundance scans (Beltran et al. 2025)
± gives the uncertainty stated by the source.

B1: Double-stranded RNA-binding protein Staufen homolog 1, residues 183 to 249; numbered along this chain, O95793 (parent)
chain: KSEISQVFEIALKRNLPVNFEVARESGPPHMKNFVTKVSVGEFVGEGEGKSKKISKKNAAIAVLEEL

Variants of: B1
Assay: abundance fitness (aPCA) (normalised: wild type 0, dead -1); higher = more abundant; growth selection in yeast, the domain comes from the species named
Details: Homo sapiens

In order of falling abundance fitness:
1. KSEISQVFEIALKRNLPVNFEVARESGPPHMKNFVTKVSVGEFVGEGEGKTKKISKKNAAIAVLEEL [S51T]  0.056 ± 0.067
2. KSEISQVFEIALKRNLPVNFEVARESGPPHMKNFVTKVSVGEFVGEGEGKSKRISKKNAAIAVLEEL [K53R]  -0.042 ± 0.04
3. KSEISQVFEIALKRNLPVNFEVARESGPPHMKNFVTKVSVGEFVGEGEGKSKEISKKNAAIAVLEEL [K53E]  -0.049 ± 0.058
4. KSEISQVFEIALKRNLPVNFEVARESGPPHMKNFVTKVSVGEFVGEGEGKSKKIAKKNAAIAVLEEL [S55A]  -0.092 ± 0.042
5. KSEISQVFEIALKRNLPVNFEVARESGPPHMKNFVTKVSVGEFVGEGEGKSKFISKKNAAIAVLEEL [K53F]  -0.175 ± 0.075
6. KSEISQVFEIALKRNLPVNFEVARESGPPHMKNFVTKVSVGEFVGEGEGKSKWISKKNAAIAVLEEL [K53W]  -0.214 ± 0.053
7. KSEISQVFEIALKRNLPVNFEVARESGPPHMKNFVTKVSVGEFVGEGEGKSKVISKKNAAIAVLEEL [K53V]  -0.22 ± 0.042
8. KSEISQVFEIALKRNLPVNFEVARESGPPHMKNFVTKVSVGEFVGEGEGKSKIISKKNAAIAVLEEL [K53I]  -0.225 ± 0.067
9. KSEISQVFEIALKRNLPVNFEVARESGPPHMKNFVTKVSVGEFVGEGEGKSKNISKKNAAIAVLEEL [K53N]  -0.243 ± 0.065
10. KSEISQVFEIALKRNLPVNFEVARESGPPHMKNFVTKVSVGEFVGEGEGKSKGISKKNAAIAVLEEL [K53G]  -0.243 ± 0.036
11. KSEISQVFEIALKRNLPVNFEVARESGPPHMKNFVTKVSVGEFVGEGEGKRKKISKKNAAIAVLEEL [S51R]  -0.244 ± 0.07
12. KSEISQVFEIALKRNLPVNFEVARESGPPHMKNFVTKVSVGEFVGEGEGKSKHISKKNAAIAVLEEL [K53H]  -0.263 ± 0.077
13. KSEISQVFEIALKRNLPVNFEVARESGPPHMKNFVTKVSVGEFVGEGEGKSKMISKKNAAIAVLEEL [K53M]  -0.278 ± 0.073
14. KSEISQVFEIALKRNLPVNFEVARESGPPHMKNFVTKVSVGEFVGEGEGKSKCISKKNAAIAVLEEL [K53C]  -0.284 ± 0.055
15. KSEISQVFEIALKRNLPVNFEVARESGPPHMKNFVTKVSVGEFVGEGEGKSKTISKKNAAIAVLEEL [K53T]  -0.311 ± 0.057
16. KSEISQVFEIALKRNLPVNFEVARESGPPHMKNFVTKVSVGEFVGEGEGKKKKISKKNAAIAVLEEL [S51K]  -0.344 ± 0.077
17. KSEISQVFEIALKRNLPVNFEVARESGPPHMKNFVTKVSVGEFVGEGEGKQKKISKKNAAIAVLEEL [S51Q]  -0.445 ± 0.081
18. KSEISQVFEIALKRNLPVNFEVARESGPPHMKNFVTKVSVGEFVGEGEGKPKKISKKNAAIAVLEEL [S51P]  -0.449 ± 0.074
19. KSEISQVFEIALKRNLPVNFEVARESGPPHMKNFVTKVSVGEFVGEGEGKSKKICKKNAAIAVLEEL [S55C]  -0.535 ± 0.091
20. KSEISQVFEIALKRNLPVNFEVARESGPPHMKNFVTKVSVGEFVGEGEGKEKKISKKNAAIAVLEEL [S51E]  -0.553 ± 0.098
21. KSEISQVFEIALKRNLPVNFEVARESGPPHMKNFVTKVSVGEFVGEGEGKWKKISKKNAAIAVLEEL [S51W]  -0.578 ± 0.19
22. KSEISQVFEIALKRNLPVNFEVARESGPPHMKNFVTKVSVGEFVGEGEGKMKKISKKNAAIAVLEEL [S51M]  -0.587 ± 0.095
23. KSEISQVFEIALKRNLPVNFEVARESGPPHMKNFVTKVSVGEFVGEGEGKVKKISKKNAAIAVLEEL [S51V]  -0.615 ± 0.071
24. KSEISQVFEIALKRNLPVNFEVARESGPPHMKNFVTKVSVGEFVGEGEGKYKKISKKNAAIAVLEEL [S51Y]  -0.657 ± 0.087
25. KSEISQVFEIALKRNLPVNFEVARESGPPHMKNFVTKVSVGEFVGEGEGKSKKIEKKNAAIAVLEEL [S55E]  -0.662 ± 0.059
26. KSEISQVFEIALKRNLPVNFEVARESGPPHMKNFVTKVSVGEFVGEGEGKSKKIIKKNAAIAVLEEL [S55I]  -0.718 ± 0.12
27. KSEISQVFEIALKRNLPVNFEVARESGPPHMKNFVTKVSVGEFVGEGEGKSKKIQKKNAAIAVLEEL [S55Q]  -0.769 ± 0.066
28. KSEISQVFEIALKRNLPVNFEVARESGPPHMKNFVTKVSVGEFVGEGEGKGKKISKKNAAIAVLEEL [S51G]  -0.791 ± 0.09
29. KSEISQVFEIALKRNLPVNFEVARESGPPHMKNFVTKVSVGEFVGEGEGKLKKISKKNAAIAVLEEL [S51L]  -0.797 ± 0.068
30. KSEISQVFEIALKRNLPVNFEVARESGPPHMKNFVTKVSVGEFVGEGEGKSKKINKKNAAIAVLEEL [S55N]  -0.8 ± 0.096
31. KSEISQVFEIALKRNLPVNFEVARESGPPHMKNFVTKVSVGEFVGEGEGKSKKIGKKNAAIAVLEEL [S55G]  -0.818 ± 0.048
32. KSEISQVFEIALKRNLPVNFEVARESGPPHMKNFVTKVSVGEFVGEGEGKSKKILKKNAAIAVLEEL [S55L]  -0.843 ± 0.049
33. KSEISQVFEIALKRNLPVNFEVARESGPPHMKNFVTKVSVGEFVGEGEGKSKKIKKKNAAIAVLEEL [S55K]  -0.889 ± 0.069
34. KSEISQVFEIALKRNLPVNFEVARESGPPHMKNFVTKVSVGEFVGEGEGKSKKIHKKNAAIAVLEEL [S55H]  -0.895 ± 0.11
35. KSEISQVFEIALKRNLPVNFEVARESGPPHMKNFVTKVSVGEFVGEGEGKIKKISKKNAAIAVLEEL [S51I]  -0.904 ± 0.18
36. KSEISQVFEIALKRNLPVNFEVARESGPPHMKNFVTKVSVGEFVGEGEGKSKKIFKKNAAIAVLEEL [S55F]  -0.915 ± 0.11
37. KSEISQVFEIALKRNLPVNFEVARESGPPHMKNFVTKVSVGEFVGEGEGKSKKIDKKNAAIAVLEEL [S55D]  -0.918 ± 0.096
38. KSEISQVFEIALKRNLPVNFEVARESGPPHMKNFVTKVSVGEFVGEGEGKFKKISKKNAAIAVLEEL [S51F]  -0.929 ± 0.1
39. KSEISQVFEIALKRNLPVNFEVARESGPPHMKNFVTKVSVGEFVGEGEGKSKKIMKKNAAIAVLEEL [S55M]  -0.931 ± 0.074
40. KSEISQVFEIALKRNLPVNFEVARESGPPHMKNFVTKVSVGEFVGEGEGKHKKISKKNAAIAVLEEL [S51H]  -1 ± 0.26
